These results are taken from publication doi:10.1101/2024.03.15.585201 (bioRxiv, 2024).

This data set deals with the molecule itself. Briefly: cryo-EM structure.

By stoichiometry N is commonly meant a count of units in the complex or per binding partner.

B1: BmrA E504A mutant (natural protein)
chain: MPTKKQKSKSKLKPFFALVRRTNPSYGKLAFALALSVVTTLVSLLIPLLTKQLVDGFSMSNLSGTQIGLIALVFFVQAGLSAYATYALNYNGQKIISGLRELLWKKLIKLPVSYFDTNASGETVSRVTNDTMVVKELITTHISGFITGIISVIGSLTILFIMNWKLTLLVLVVVPLAALILVPIGRKMFSISRETQDETARFTGLLNQILPEIRLVKASNAEDVEYGRGKMGISSLFKLGVREAKVQSLVGPLISLVLMAALVAVIGYGGMQVSSGELTAGALVAFILYLFQIIMPMGQITTFFTQLQKSIGATERMIEILAEEEEDTVTGKQIENAHLPIQLDRVSFGYKPDQLILKEVSAVIEAGKVTAIVGPSGGGKTTLFKLLERFYSPTAGTIRLGDEPVDTYSLESWREHIGYVSQESPLMSGTIRENICYGLERDVTDAEIEKAAEMAYALNFIKELPNQFDTEVGERGIMLSGGQRQRIAIARALLRNPSILMLDAATSSLDSQSEKSVQQALEVLMEGRTTIVIAHRLSTVVDADQLLFVEKGEITGRGTHHELMASHGLYRDFAEQQLKMNADLENKAG
On to B1, for which the “stoichiometry N” value is 2.
